The experiment addresses T1, Recombinant mouse DKK1 protein (R&D) (mouse, UniProt O54908 32-272, limits assumed).
T1 construct: Bought recombinant protein, coated on the ELISA plate at 20 ng/ml
T1 sequence (looked up): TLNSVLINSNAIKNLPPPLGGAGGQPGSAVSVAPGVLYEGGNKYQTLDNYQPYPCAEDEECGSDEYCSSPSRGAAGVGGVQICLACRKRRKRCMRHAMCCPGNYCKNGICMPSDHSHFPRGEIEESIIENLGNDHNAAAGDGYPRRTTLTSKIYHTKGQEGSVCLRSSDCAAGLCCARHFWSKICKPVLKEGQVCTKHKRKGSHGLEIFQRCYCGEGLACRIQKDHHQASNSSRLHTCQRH
The experiment is described as follows: ELISA, recombinant mouse DKK1 coated at 20 ng/ml. As to the method:
Recombinant mouse DKK2 or DKK1 protein (20 ng/ml, R&D) in a blocking buffer (1% BSA in PBS) was incubated in a 384-well microtiter plate for overnight at 4° C. The plate was washed with PBS twice and incubated with the blocking buffer for one hour at room temperature. The plate was then incubated with the anti-DKK2 5F8 antibody in the blocking buffer for 1 hour at room temperature. After repeatedly washing, the plate was incubated with an HRP-conjugated secondary antibody for 1 hour at room temperature. A chemiluminance substrate (Thermo Fisher 37070) was added to the plate, and the plate was read by an EnVision plate reader.
In general terms: An ELISA detects its analyte on a solid surface through an enzyme-linked reagent.

B1: Mouse monoclonal antibody to DKK2 (5F8) (antibody, V domains shown)
VH: GAELVRPGASVKLSCKASGYSFTNYWMNWVKQRPGQGLEWIGMIHPSDSETRLNQKFKDKATLTVDKSSSTAYMQLSSPTSEDSAVYYCAREGRLGLRSYAMDYWGQGTSVTVSS
VL: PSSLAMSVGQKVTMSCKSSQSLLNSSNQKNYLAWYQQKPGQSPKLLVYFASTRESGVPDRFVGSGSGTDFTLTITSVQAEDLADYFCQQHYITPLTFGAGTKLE
notes: Mouse hybridoma antibody; IgG3 served as its isotype control; also called anti-DKK2 5F8 antibody; anti-DKK2 antibody 5F8
Consider B1, for which the binding result is on record as “no binding”.

The values above are taken from US20200179510A1 (YALE UNIVERSITY, published 2020).
